This passage reports Potency and Antigenic activity (gE/prot) results from US20200188499A1.

In assay [1] the target is VARITECT (human polyclonal antibodies directed against Varicella Zoster antigens). Nature of the assay: inhibition ELISA with VARITECT; gE content divided by titer of the standard; lyophilised gE. Background: An ELISA detects its analyte on a solid surface through an enzyme-linked reagent.
Assay [2] shares this target. Nature of the assay: inhibition ELISA with VARITECT; gE content by ELISA divided by Lowry protein; lyophilised gE.
For assay [3] the target is unchanged. Nature of the assay: inhibition ELISA with VARITECT; gE content divided by titer of the standard; co-lyophilised gE/AS01.
Assay [4] has the same target. Nature of the assay: inhibition ELISA with VARITECT; gE content divided by titer of the standard; control VZV gE vaccine.
Assay [5] has the same target. Briefly: inhibition ELISA with VARITECT; gE content by ELISA divided by Lowry protein; co-lyophilised gE/AS01.
The target is the same in assay [6]. Nature of the assay: inhibition ELISA with VARITECT; gE content by ELISA divided by Lowry protein; control VZV gE vaccine.
The target is the same in assay [7]. Briefly: inhibition ELISA with VARITECT; gE content by ELISA divided by Lowry protein; gE before lyophilisation.
Assay [8] shares this target. Briefly: inhibition ELISA with VARITECT; gE content by ELISA divided by Lowry protein; sample gE/AS01 before lyophilisation.

On to “VZV gE antigen (truncated form of the Varicella Zoster Virus glycoprotein E) (from UniProt P09259 31-546)”, for which the results for the Potency in assay [1], in assay [3] and in assay [4] were 0.98, 1.02 and 0.92, respectively. Besides, the Antigenic activity (gE/prot) in assay [2] is 1.01; in assay [5], 0.99; in assay [6], 1.15; in assay [7] it was 1.05; in assay [8], 0.96.
